Patent publication US20140072613A1, “Compositions and Methods for Treating Cutaneous Scarring” (priority 2012, published 2014)

Experiments:
Assay in all cases: biochemical
Type in all cases: biochemical
[1] = target: 266 human kinases (Homo sapiens, UniProt P05771); conditions: PKCβI(h); 100 μM
Method in brief: (§1)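 Radiometric filter-binding format: a positively charged substrate takes up radiolabelled phosphate from ATP unless the kinase is inhibited, then is captured on a negatively charged filter membrane. Counts from scintillation are expressed relative to a 100% activity control.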

[2] = target: 266 human kinases (Homo sapiens, UniProt P08581, Y1230H); conditions: Met(Y1248H)(h); 100 μM
Method in brief: as §1

[3] = target: 266 human kinases (Homo sapiens, UniProt P36888); conditions: Flt3(h); 100 μM
Method in brief: as §1

[4] = target: 266 human kinases (Homo sapiens, UniProt P54764); conditions: EphA4(h); 100 μM
Sequence of 266 human kinases (Homo sapiens, UniProt P54764) (P54764 20-986): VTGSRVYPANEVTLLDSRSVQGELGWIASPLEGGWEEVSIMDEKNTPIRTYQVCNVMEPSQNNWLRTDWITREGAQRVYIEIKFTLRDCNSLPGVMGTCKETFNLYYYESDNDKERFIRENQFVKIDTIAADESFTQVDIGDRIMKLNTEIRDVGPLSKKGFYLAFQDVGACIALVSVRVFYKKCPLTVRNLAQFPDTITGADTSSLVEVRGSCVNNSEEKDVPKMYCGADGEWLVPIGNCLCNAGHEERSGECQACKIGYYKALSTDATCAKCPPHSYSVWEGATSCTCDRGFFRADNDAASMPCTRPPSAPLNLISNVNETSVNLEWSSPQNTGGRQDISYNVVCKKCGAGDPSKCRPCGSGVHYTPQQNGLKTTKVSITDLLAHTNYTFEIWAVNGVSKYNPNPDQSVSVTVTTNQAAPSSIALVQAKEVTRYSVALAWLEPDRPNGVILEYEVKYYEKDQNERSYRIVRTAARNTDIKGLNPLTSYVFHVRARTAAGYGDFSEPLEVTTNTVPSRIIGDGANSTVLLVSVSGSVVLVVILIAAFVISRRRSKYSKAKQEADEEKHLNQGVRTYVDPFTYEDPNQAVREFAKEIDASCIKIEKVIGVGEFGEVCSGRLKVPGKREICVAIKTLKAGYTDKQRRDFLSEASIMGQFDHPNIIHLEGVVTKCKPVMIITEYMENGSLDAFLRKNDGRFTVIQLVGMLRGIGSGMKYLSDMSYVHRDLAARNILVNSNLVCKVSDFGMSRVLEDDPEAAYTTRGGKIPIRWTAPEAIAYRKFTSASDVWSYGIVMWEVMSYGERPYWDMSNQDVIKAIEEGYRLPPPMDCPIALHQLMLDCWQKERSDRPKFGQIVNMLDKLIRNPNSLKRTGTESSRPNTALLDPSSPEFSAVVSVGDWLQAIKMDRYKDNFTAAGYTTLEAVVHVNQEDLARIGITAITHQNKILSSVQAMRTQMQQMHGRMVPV
Method in brief: as §1

[5] = target: 266 human kinases (Homo sapiens, UniProt Q02763, Y897S); conditions: Tie2(Y897S)(h); 100 μM
Sequence of 266 human kinases (Homo sapiens, UniProt Q02763, Y897S) (Q02763 23-1124 Y897S): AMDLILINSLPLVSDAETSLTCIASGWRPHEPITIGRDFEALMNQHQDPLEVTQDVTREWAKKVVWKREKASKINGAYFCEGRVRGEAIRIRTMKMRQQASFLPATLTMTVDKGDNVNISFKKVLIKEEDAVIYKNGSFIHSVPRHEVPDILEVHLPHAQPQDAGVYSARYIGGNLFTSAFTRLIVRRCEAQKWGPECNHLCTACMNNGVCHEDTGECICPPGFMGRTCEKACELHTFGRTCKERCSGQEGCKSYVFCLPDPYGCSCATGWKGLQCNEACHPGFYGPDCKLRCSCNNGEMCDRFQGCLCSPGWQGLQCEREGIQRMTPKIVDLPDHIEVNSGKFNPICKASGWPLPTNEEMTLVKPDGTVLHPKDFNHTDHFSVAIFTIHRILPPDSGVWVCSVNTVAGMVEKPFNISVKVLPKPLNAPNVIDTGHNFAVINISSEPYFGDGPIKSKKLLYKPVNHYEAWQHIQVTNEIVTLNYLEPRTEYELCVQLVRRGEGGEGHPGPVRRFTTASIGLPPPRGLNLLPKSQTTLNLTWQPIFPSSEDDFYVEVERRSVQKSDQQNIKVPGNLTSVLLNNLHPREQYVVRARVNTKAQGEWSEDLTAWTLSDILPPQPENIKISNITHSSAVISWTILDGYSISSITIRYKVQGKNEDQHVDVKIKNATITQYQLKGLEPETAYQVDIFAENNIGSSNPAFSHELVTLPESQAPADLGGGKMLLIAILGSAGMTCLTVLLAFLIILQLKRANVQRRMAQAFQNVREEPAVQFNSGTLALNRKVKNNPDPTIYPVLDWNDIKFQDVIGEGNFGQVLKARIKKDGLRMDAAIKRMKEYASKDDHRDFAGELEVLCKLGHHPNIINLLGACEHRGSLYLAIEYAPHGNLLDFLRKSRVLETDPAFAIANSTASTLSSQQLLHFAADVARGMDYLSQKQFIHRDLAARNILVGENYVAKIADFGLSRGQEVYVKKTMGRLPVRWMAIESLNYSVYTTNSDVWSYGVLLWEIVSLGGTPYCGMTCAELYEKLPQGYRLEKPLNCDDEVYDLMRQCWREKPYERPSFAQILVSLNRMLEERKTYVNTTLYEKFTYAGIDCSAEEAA
Method in brief: as §1

[6] = target: T1, 266 human kinases (Homo sapiens, UniProt Q15139); conditions: PKCμ(h); 100 μM
T1 sequence (Q15139 1-912): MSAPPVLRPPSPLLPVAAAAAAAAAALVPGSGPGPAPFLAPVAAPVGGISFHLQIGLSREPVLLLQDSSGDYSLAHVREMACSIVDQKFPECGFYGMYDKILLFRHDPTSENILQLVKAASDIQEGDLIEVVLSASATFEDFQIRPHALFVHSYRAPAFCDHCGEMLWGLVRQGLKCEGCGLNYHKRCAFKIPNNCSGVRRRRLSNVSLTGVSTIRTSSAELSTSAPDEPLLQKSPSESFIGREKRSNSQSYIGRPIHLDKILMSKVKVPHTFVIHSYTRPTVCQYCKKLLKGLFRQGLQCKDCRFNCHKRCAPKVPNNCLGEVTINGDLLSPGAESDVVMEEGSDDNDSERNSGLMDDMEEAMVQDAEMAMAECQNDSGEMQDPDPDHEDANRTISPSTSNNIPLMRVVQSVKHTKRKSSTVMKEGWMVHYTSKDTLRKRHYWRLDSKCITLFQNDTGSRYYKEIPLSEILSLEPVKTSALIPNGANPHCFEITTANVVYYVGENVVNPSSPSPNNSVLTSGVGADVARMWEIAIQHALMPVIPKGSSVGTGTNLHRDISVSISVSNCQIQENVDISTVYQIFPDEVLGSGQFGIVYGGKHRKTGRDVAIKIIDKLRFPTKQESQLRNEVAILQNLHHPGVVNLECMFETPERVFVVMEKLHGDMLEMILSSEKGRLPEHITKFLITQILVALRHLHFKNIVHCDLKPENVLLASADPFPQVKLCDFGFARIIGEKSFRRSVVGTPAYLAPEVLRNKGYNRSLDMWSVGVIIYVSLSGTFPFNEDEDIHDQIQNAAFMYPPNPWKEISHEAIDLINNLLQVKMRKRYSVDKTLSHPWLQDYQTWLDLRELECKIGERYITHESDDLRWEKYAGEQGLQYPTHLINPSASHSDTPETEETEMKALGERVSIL
Method in brief: as §1

[7] = target: 266 human kinases (Homo sapiens, UniProt Q15303); conditions: ErbB4(h); 100 μM
Sequence of 266 human kinases (Homo sapiens, UniProt Q15303) (Q15303 26-1308): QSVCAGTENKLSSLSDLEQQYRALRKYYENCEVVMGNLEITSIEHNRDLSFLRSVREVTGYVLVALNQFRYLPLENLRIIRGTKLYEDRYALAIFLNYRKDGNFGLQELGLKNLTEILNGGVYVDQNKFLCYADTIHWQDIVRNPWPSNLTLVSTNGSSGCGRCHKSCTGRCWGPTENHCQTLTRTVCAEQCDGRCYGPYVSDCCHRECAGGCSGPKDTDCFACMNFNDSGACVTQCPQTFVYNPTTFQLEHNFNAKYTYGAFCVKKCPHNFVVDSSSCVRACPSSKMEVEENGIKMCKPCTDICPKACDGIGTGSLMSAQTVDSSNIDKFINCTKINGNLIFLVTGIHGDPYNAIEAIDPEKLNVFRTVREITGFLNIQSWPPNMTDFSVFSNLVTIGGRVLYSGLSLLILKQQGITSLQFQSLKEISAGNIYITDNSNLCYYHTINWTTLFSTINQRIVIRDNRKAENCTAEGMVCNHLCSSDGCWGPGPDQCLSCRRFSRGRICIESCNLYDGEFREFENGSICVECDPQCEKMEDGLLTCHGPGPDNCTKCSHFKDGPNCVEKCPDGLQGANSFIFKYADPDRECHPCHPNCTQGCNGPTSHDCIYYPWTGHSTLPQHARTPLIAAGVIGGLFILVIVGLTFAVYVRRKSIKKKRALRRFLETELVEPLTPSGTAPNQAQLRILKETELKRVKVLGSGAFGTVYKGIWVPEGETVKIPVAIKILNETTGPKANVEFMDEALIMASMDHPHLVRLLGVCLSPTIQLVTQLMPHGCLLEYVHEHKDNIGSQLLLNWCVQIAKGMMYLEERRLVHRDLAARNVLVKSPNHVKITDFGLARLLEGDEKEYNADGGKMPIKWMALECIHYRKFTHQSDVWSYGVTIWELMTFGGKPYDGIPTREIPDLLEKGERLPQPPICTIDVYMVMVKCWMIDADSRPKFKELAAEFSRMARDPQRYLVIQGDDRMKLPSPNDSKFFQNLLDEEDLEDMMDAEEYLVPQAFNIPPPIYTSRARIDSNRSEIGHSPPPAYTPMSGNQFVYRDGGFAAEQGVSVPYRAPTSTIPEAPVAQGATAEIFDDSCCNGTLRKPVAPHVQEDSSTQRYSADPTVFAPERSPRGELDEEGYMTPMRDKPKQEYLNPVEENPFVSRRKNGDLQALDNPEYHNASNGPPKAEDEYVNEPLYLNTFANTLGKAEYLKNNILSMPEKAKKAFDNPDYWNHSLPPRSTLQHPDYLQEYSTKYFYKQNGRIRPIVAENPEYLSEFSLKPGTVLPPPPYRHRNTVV
Method in brief: as §1

[8] = target: T2, 266 human kinases (Homo sapiens, UniProt Q8N568); conditions: DCAMKL2(h); 100 μM
T2 sequence (Q8N568 1-766): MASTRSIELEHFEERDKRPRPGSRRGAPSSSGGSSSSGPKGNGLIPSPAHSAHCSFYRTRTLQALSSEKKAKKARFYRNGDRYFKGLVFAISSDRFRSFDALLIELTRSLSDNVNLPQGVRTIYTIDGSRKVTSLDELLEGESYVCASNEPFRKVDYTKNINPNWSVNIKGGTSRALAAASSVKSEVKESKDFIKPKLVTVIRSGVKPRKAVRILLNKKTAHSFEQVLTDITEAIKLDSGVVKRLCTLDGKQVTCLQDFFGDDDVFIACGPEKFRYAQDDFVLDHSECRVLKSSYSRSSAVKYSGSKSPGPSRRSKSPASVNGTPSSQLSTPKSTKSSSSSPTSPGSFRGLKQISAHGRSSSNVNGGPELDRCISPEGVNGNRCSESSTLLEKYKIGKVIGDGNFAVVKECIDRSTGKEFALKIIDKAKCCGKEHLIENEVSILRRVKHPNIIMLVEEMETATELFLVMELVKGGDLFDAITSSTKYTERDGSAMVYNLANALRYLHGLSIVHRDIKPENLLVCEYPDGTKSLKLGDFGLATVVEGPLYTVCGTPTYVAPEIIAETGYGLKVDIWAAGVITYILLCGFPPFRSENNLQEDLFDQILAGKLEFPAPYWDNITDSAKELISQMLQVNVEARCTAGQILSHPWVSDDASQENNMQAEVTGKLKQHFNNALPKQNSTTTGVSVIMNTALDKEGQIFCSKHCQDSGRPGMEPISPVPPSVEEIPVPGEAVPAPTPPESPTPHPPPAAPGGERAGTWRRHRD
Method in brief: as §1

[9] = target: 266 human kinases (Homo sapiens, UniProt Q8TDX7); conditions: NEK7(h); 100 μM
Sequence of 266 human kinases (Homo sapiens, UniProt Q8TDX7) (Q8TDX7 whole entry): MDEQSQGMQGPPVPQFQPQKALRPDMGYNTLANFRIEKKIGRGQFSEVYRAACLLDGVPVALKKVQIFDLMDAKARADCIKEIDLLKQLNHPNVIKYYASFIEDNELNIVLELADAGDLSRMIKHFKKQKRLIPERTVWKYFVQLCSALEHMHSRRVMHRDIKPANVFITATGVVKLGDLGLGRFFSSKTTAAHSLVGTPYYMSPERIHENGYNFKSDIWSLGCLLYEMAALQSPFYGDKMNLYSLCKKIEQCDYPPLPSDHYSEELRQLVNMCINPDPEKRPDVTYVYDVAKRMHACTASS
Method in brief: as §1

[10] = target: 266 human kinases (Homo sapiens, UniProt Q9UIK4); conditions: DAPK2(h); 100 μM
Sequence of 266 human kinases (Homo sapiens, UniProt Q9UIK4) (Q9UIK4 whole entry): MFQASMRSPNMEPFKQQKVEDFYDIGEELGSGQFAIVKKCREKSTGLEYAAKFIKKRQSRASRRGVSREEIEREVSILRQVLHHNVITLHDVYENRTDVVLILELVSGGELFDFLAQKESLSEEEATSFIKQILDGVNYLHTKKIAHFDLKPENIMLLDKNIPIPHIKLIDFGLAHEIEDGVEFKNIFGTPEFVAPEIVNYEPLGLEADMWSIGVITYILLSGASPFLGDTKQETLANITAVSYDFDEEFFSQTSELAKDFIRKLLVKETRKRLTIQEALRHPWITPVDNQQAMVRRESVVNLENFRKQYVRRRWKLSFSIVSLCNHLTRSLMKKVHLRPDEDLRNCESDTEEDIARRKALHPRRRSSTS
Method in brief: as §1

Sequence of 266 human kinases (Homo sapiens, UniProt P05771) (P05771 whole entry): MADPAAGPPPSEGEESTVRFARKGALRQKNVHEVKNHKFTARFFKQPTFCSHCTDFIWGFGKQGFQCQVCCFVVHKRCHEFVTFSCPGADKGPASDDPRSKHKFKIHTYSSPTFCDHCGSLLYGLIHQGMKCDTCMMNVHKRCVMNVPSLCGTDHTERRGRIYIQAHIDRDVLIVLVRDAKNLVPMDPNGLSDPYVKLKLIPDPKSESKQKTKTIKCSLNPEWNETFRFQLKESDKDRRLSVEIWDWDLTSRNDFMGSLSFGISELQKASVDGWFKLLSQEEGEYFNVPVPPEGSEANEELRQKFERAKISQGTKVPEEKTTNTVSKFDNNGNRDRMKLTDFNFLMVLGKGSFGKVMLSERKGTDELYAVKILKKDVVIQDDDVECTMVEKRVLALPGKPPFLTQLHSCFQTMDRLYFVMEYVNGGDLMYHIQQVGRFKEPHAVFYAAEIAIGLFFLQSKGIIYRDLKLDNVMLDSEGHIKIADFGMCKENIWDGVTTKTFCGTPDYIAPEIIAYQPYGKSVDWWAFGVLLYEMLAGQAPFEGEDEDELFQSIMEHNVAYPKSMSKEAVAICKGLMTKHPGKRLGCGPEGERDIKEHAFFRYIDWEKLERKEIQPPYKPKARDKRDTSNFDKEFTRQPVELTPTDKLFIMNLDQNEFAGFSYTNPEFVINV

Sequence	% activity [1]	% activity [2]	% activity [3]	% activity [4]	% activity [5]	% activity [6]	% activity [7]	% activity [8]	% activity [9]	% activity [10]
HRRIKAWLKKIKALARQLGVAA (mammal) [MMI-0500]	1%	126%	17%	48%	80%	10%	2%	56%	89%	3%
YARAAARQARAKALNRQLGVA (mammal) [MMI-0200]	98%	153%	99%	127%	85%	73%	82%	131%	96%	92%
